Laboratory results published in US20030135880A1, “Compositions and methods for halogenation reactions” (priority 2002, published 2003).

Assays:
PrnA = target: T1, PrnA (Pseudomonas fluorescens, UniProt P95480); test: Activation of PrnA by electron transferases, 2 h assay (Example 2); assay type: biochemical; details: 20 microliter PrnA, 50 microliter NADH, 50 microliter electron transferase, room temperature
T1 construct: made in house; host or cells: Pseudomonas fluorescens BL915deltaORF1-4 with plasmid pPEH14 (prnA)
Method: The following components are used in examples 1-4 below: PrnA (described for Example 1 above) at 0.36 mg/ml, Assay Mixture containing HEPES (100 mM), glucose-6-phosphate, disodium salt (50 mM), D-Trp (5 mM), NaCl (5 mM). Aspergillus niger catalase (39 U/ml), bovine erythrocyte superoxide dismutase (15 U/ml), Leuconostoc mesenteroides glucose-6-phosphate dehydrogenase (10 U/ml). NADH-(3 mg/ml) NADPH (3 mg/ml).
Each assay contains the assay mixture, either NADH (for samples containing Fre and the NAD(P)H:FMN reductase) or NADPH (for samples containing FNR or FNR and Fd), PrnA and the indicated electron transferase. Negative control samples are incubated in parallel; these substituted buffer for PrnA. Quantification standards are prepared by diluting 0,1, 2 or 5 microliter of 7-Cl-Trp standard (1 mM) in 100 microliter Assay Mixture, 50 microliter NADH, 20 microliter PrnA and 50 microliter buffer; the tubes were heated to 100 C. prior to addition of PrnA, then heated an additional 2 min. Further processing is in parallel with the enzymatic reactions. All samples are mixed for 2 h at room temperature. Reactions are stopped and samples processed as described above in Example 1, including using the HPLC Analytical method PrnA1 as described in Example 1.

PrnC = target: T2, PrnC (Pseudomonas fluorescens, UniProt P95482); test: In vitro halogenation with PrnC: chlorination of MDA to APRN (Example 3); assay type: biochemical, P. fluorescens; details: Extract #2 (PrnC depleted of P2) plus 20 microliter electron transferase, NADH, overnight
T2 construct: made in house; host or cells: P. fluorescens (pPEH/prnC/134Δprn), plasmid pPEH-PrnC with tac promoter
T2 sequence (P95482 whole entry, looked up): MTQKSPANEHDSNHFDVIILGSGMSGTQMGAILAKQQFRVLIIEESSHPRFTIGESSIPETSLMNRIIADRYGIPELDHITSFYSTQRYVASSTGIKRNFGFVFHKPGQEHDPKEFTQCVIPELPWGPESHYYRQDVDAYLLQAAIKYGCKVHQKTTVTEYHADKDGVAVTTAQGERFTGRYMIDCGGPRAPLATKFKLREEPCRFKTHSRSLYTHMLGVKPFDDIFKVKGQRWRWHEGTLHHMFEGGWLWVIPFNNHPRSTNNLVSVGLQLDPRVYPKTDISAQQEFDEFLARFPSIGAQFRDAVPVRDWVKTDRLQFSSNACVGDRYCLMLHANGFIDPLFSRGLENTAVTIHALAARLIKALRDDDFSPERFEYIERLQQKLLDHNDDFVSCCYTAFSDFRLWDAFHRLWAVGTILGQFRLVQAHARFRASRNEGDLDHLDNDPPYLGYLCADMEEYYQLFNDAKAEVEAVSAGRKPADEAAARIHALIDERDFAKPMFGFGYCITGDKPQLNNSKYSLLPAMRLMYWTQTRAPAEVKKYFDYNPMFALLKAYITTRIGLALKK
Method: Fre, ferrodoxin NADP reductase, ferrodoxin and NADPH FMN-reductase are tested for the ability to activate P. fluorescens PrnC that was depleted of endogenous electron transferase (P2) as described below. PrnC catalyzes chlorination of monodechloroaminopyrrolnitrin (MDA) to yield aminopyrrolnitrin (APRN).
The following materials are prepared for use in assays described below. Buffer 100 mM Tris/Cl, 1 mM EDTA. pH 7.5. Monodechloroaminopyrrolnitrin (MDA) 74.2 mM is prepared by culture of Pseudomonas fluorescens expressing PrnA and PrnB as described in (Kirner et al,1998) which is herein incorporated by reference in its entirety. The assay mix comprises FAD (5 μM) and MDA (742 μM) in buffer. […]
The assays described below are run as follows; Extract #2 is mixed with the indicated electron transferase, assay mix and either NADH or NADPH as indicated. The native activity of PrnC prior to removal of the P2 activity is determined by a parallel sample in which extract #1 is mixed with assay mix and NADH. […] Samples are analyzed by PrnC_Iso method described below. The 220 nm absorbance chromatogram is analyzed and integrated. PrnC activity is expressed as 100 times the ratio of the APRN peak area to the sum of the peak areas of APRN and MDA. Assuming equal extinction coefficients at 220 nm the calculated ratio is equivalent to the net % conversion of MDA to APRN by halogenation. […]

T1 sequence (P95480 whole entry): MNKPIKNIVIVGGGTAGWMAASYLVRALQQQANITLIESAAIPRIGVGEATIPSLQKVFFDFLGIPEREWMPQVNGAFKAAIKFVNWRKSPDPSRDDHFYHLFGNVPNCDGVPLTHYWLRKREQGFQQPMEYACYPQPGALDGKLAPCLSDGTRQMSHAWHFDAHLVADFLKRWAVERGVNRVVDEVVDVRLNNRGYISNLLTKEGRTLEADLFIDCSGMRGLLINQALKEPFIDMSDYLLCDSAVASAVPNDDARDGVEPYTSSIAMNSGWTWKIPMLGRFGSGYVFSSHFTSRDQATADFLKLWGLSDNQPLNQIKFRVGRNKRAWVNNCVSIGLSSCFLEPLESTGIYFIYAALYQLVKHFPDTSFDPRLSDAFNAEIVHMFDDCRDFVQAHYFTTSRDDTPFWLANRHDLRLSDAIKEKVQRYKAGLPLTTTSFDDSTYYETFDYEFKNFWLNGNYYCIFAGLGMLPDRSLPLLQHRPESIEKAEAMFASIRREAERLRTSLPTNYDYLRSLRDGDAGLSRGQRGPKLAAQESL

ferrodoxin NADP reductase and ferrodoxin: Spinach ferredoxin NADP reductase used together with spinach ferredoxin (Fd)
Net 7-Cl-Trp produced (PrnA): 9.15 nmol | PrnC activity, conversion of MDA to APRN (PrnC): 2.5%
